Results published in the supplement of paper PMC9112550, “Optimization of the antimicrobial peptide Bac7 by deep mutational scanning” (BMC Biology, 2022).
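Note: peptides expressed intracellularly from a pBAD plasmid library in pooled LB shake-flask culture, induced with 0.3% L-arabinose, DNA abundance read by NGS, three biological replicates, DESeq2 with apeglm shrinkage.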

What follows are sequences tested on Escherichia coli TOP10 (assay: shrunken log2 fold change of peptide-encoding DNA abundance (4.5 h post-induction vs induction); higher = less antimicrobial activity (less host growth inhibition)). Details: time post-induction: 4.5 h; library: site-saturation at positions 5, 18, 19, 20.
With RRIRFRPPRLPRPRPRPGSRPRP the “shrunken log2 fold change” value was 0.191.
In the case of RRIRLRPPRLPRPRPRPPKWPRP, the “shrunken log2 fold change” value is reported as 0.532.
RRIRARPPRLPRPRPRPYSIPRP was tested, and the “shrunken log2 fold change” value was -0.374.
With RRIRPRPPRLPRPRPRPYGWPRP the “shrunken log2 fold change” value was -0.248.
With RRIRERPPRLPRPRPRPELEPRP the “shrunken log2 fold change” value was 0.276.
With RRIRKRPPRLPRPRPRPWFDPRP the “shrunken log2 fold change” value was -0.0566.
With RRIRPRPPRLPRPRPRPMKSPRP the “shrunken log2 fold change” value was -0.0679.
For RRIRGRPPRLPRPRPRPEIRPRP, the “shrunken log2 fold change” value was 0.122.
In the case of RRIRMRPPRLPRPRPRPPGTPRP, the “shrunken log2 fold change” value is reported as 1.05.
With RRIRKRPPRLPRPRPRPAWLPRP the “shrunken log2 fold change” value was 0.564.
For RRIRCRPPRLPRPRPRPYVWPRP, the “shrunken log2 fold change” value was -0.369.
With RRIRGRPPRLPRPRPRPLLKPRP the “shrunken log2 fold change” value was 1.39.
With RRIRKRPPRLPRPRPRPILMPRP the “shrunken log2 fold change” value was 0.0297.
RRIRHRPPRLPRPRPRPEKMPRP was tested, and the “shrunken log2 fold change” value was -0.0669.
With RRIRMRPPRLPRPRPRPSIDPRP the “shrunken log2 fold change” value was 0.789.
For RRIRFRPPRLPRPRPRPQNYPRP, the “shrunken log2 fold change” value was -0.502.
With RRIRDRPPRLPRPRPRPGQYPRP the “shrunken log2 fold change” value was -0.0267.
With RRIRKRPPRLPRPRPRPGWPPRP the “shrunken log2 fold change” value was 0.424.
For RRIRGRPPRLPRPRPRPNGCPRP, the “shrunken log2 fold change” value was 0.12.
With RRIRQRPPRLPRPRPRPYPWPRP the “shrunken log2 fold change” value was -0.266.
With RRIRFRPPRLPRPRPRPIMVPRP the “shrunken log2 fold change” value was -0.104.
For RRIRHRPPRLPRPRPRPFDRPRP, the “shrunken log2 fold change” value was -0.172.
With RRIRIRPPRLPRPRPRPPLVPRP the “shrunken log2 fold change” value was 0.0482.
For RRIRFRPPRLPRPRPRPPQYPRP, the “shrunken log2 fold change” value was 0.0298.
For RRIRRRPPRLPRPRPRPPIQPRP, the “shrunken log2 fold change” value was 0.16.
In the case of RRIRTRPPRLPRPRPRPQCKPRP, the “shrunken log2 fold change” value is reported as -0.26.
In the case of RRIRSRPPRLPRPRPRPHMDPRP, the “shrunken log2 fold change” value is reported as -0.427.
RRIRNRPPRLPRPRPRPWWAPRP was tested, and the “shrunken log2 fold change” value was -0.0446.
With RRIRKRPPRLPRPRPRPNYNPRP the “shrunken log2 fold change” value was 0.0883.
With RRIRTRPPRLPRPRPRPNNNPRP the “shrunken log2 fold change” value was -0.451.
RRIRRRPPRLPRPRPRPSNVPRP was tested, and the “shrunken log2 fold change” value was 0.27.
With RRIRERPPRLPRPRPRPAELPRP the “shrunken log2 fold change” value was -0.187.
RRIRLRPPRLPRPRPRPMCEPRP was tested, and the “shrunken log2 fold change” value was -0.0027.
With RRIRARPPRLPRPRPRPCLDPRP the “shrunken log2 fold change” value was 0.313.
With RRIRERPPRLPRPRPRPVNQPRP the “shrunken log2 fold change” value was -0.123.
RRIRVRPPRLPRPRPRPEHCPRP was tested, and the “shrunken log2 fold change” value was 0.404.
For RRIRSRPPRLPRPRPRPITKPRP, the “shrunken log2 fold change” value was -0.083.
RRIRFRPPRLPRPRPRPYAMPRP was tested, and the “shrunken log2 fold change” value was -0.686.
RRIRKRPPRLPRPRPRPKDRPRP was tested, and the “shrunken log2 fold change” value was 0.088.
In the case of RRIRTRPPRLPRPRPRPGLPPRP, the “shrunken log2 fold change” value is reported as 0.189.
In the case of RRIRCRPPRLPRPRPRPLNKPRP, the “shrunken log2 fold change” value is reported as -0.695.
RRIRTRPPRLPRPRPRPSLGPRP was tested, and the “shrunken log2 fold change” value was -0.229.
For RRIRGRPPRLPRPRPRPYPLPRP, the “shrunken log2 fold change” value was -0.236.
RRIRHRPPRLPRPRPRPHQCPRP was tested, and the “shrunken log2 fold change” value was 1.73.
RRIRLRPPRLPRPRPRPDTGPRP was tested, and the “shrunken log2 fold change” value was -0.243.
For RRIRIRPPRLPRPRPRPYCYPRP, the “shrunken log2 fold change” value was -0.0959.
For RRIRMRPPRLPRPRPRPVMSPRP, the “shrunken log2 fold change” value was 0.134.
For RRIRRRPPRLPRPRPRPAWTPRP, the “shrunken log2 fold change” value was 1.74.
With RRIRLRPPRLPRPRPRPQWNPRP the “shrunken log2 fold change” value was -0.289.
RRIRSRPPRLPRPRPRPPNQPRP was tested, and the “shrunken log2 fold change” value was 0.134.
For RRIRRRPPRLPRPRPRPELRPRP, the “shrunken log2 fold change” value was 0.463.
With RRIRVRPPRLPRPRPRPFYIPRP the “shrunken log2 fold change” value was -0.457.
In the case of RRIRFRPPRLPRPRPRPGFMPRP, the “shrunken log2 fold change” value is reported as -0.242.
RRIRARPPRLPRPRPRPSLAPRP was tested, and the “shrunken log2 fold change” value was 0.54.
For RRIRMRPPRLPRPRPRPRRIPRP, the “shrunken log2 fold change” value was 0.767.
In the case of RRIRLRPPRLPRPRPRPHDEPRP, the “shrunken log2 fold change” value is reported as 0.0746.
RRIRIRPPRLPRPRPRPYACPRP was tested, and the “shrunken log2 fold change” value was -0.0484.
In the case of RRIRCRPPRLPRPRPRPCLMPRP, the “shrunken log2 fold change” value is reported as -0.421.
In the case of RRIRKRPPRLPRPRPRPRQTPRP, the “shrunken log2 fold change” value is reported as 0.0644.
For RRIRKRPPRLPRPRPRPSFEPRP, the “shrunken log2 fold change” value was 0.000728.
For RRIRDRPPRLPRPRPRPQLRPRP, the “shrunken log2 fold change” value was -0.0942.
For RRIRGRPPRLPRPRPRPIRFPRP, the “shrunken log2 fold change” value was 0.0151.
With RRIRMRPPRLPRPRPRPHASPRP the “shrunken log2 fold change” value was 0.116.
RRIRIRPPRLPRPRPRPRCFPRP was tested, and the “shrunken log2 fold change” value was -0.141.
RRIRLRPPRLPRPRPRPGDSPRP was tested, and the “shrunken log2 fold change” value was -0.23.
With RRIRYRPPRLPRPRPRPEEMPRP the “shrunken log2 fold change” value was -0.0902.
In the case of RRIRSRPPRLPRPRPRPQELPRP, the “shrunken log2 fold change” value is reported as -0.107.
For RRIRCRPPRLPRPRPRPNCIPRP, the “shrunken log2 fold change” value was -0.723.
With RRIRDRPPRLPRPRPRPHFNPRP the “shrunken log2 fold change” value was -0.381.
With RRIRARPPRLPRPRPRPMCGPRP the “shrunken log2 fold change” value was 0.121.
With RRIRRRPPRLPRPRPRPPKDPRP the “shrunken log2 fold change” value was 0.472.
For RRIRPRPPRLPRPRPRPTHEPRP, the “shrunken log2 fold change” value was 0.466.
In the case of RRIRLRPPRLPRPRPRPKRYPRP, the “shrunken log2 fold change” value is reported as 0.0464.
RRIRLRPPRLPRPRPRPHIWPRP was tested, and the “shrunken log2 fold change” value was -0.278.
For RRIRVRPPRLPRPRPRPFTCPRP, the “shrunken log2 fold change” value was -0.216.
